From PMC12386978 (2025) come the findings set out here.

B1: NLuc-mCRY1 (wild-type) [mouse (printed as mCRY1)] / CLuc-BMAL1 [not stated] (parent complex)
chain 1: MGVNAVHWFRKGLRLHDNPALKECIQGADTIRCVYILDPWFAGSSNVGINRWRFLLQCLEDLDANLRKLNSRLFVIRGQPADVFPRLFKEWNITKLSIEYDSEPFGKERDAAIKKLATEAGVEVIVRISHTLYDLDKIIELNGGQPPLTYKRFQTLVSKMEPLEMPADTITSDVIGKCMTPLSDDHDEKYGVPSLEELGFDTDGLSSAVWPGGETEALTRLERHLERKAWVANFERPRMNANSLLASPTGLSPYLRFGCLSCRLFYFKLTDLYKKVKKNSSPPLSLYGQLLWREFFYTAATNNPRFDKMEGNPICVQIPWDKNPEALAKWAEGRTGFPWIDAIMTQLRQEGWIHHLARHAVACFLTRGDLWISWEEGMKVFEELLLDADWSINAGSWMWLSCSSFFQQFFHCYCPVGFGRRTDPNGDYIRRYLPVLRGFPAKYIYDPWNAPEGIQKVAKCLIGVNYPKPMVNHAEASRLNIERMKQIYQQLSRYRGLGLLASVPSNSNGNGGLMGYAPGENVPSCSSSGNGGLMGYAPGENVPSCSGGNCSQGSGILHYAHGDSQQTHSLKQGRSSAGTGLSSGKRPSQEEDAQSVGPKVQRQSSN
chain 2: not shown

In this assay the parent is B1. In words: split-luciferase complementation assay; HEK293T cells, n = 3; read off a plot.
As to chain 1 K151R, the response is approximately 3900.

With chain 1 K151Q, the response was approximately 3200.
